# Data: the RNAGym collection of RNA variant scans (doi:10.1073/pnas.2313332121)
# Fewer inactive variants are shown than the library holds.
# B1: TPR 5TU (parent)
# chain: GGAUCUUCUCGAUCUAACAAAAAAGACAAAUCUGCCACAAAGCUUGAGAGCAUCUUCGGAUGCAGAGGCGGCAGCCUUCGGUGGCGCGAUAGCGCCAACGUUCUCAACUAUGACACGCAAAACGCGUGCUCCGUUGAAUGGAGUUUAUCAUG
# Variants of: B1
# Test: polymerase ribozyme fitness, log enrichment relative to wild type (log ratio); higher = more active; in vitro selection for triplet polymerase activity
# Method in brief: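 For each subunit of a heterodimeric triplet polymerase ribozyme, a mutant library was built by PCR and transcribed, then taken through a single in vitro selection round in triplicate. Selection involved annealing to a biotinylated primer, the partner subunit and triplets, incubation frozen at −7 °C, gel excision of extended constructs, capture on streptavidin beads and RT-PCR. Genotypes were retained after Illumina sequencing of inputs and outputs only with ≥10 input reads and ≥1 read in each output. Fitness is defined as the logarithm of a genotype's enrichment relative to wild-type enrichment, using inverse-variance-weighted averages across replicates, with the logarithm taken to base 2.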
row,Variant,polymerase ribozyme fitness (log ratio)
1,U6C U7G G59U G68C U82C G136U,≤ -4.2
2,U7C C27G C96U,≤ -4.2
3,C8A A26U,-3.66
4,U6A U15G A16U G74A U82G C95U,≤ -4.2
5,C8U U13A A40C U44G C93G,≤ -4.2
6,C8G G11C C14U G50C C95U C132A U135A A137C,≤ -4.2
7,U7A U61A G62A G71C C103G,≤ -4.2
8,C8A U31G U33G A40U C51U U77C C93G C108G C116U A147G,≤ -4.2
9,C8U C35U A41C G58C G68U G86U C114A G140A,≤ -4.2
10,U7C U45G G83C G128U C132G A147C,≤ -4.2
11,U7G U15G A21C A39G U45G G92U U127C,≤ -4.2
12,U7A A22G U77C G124U C132A,≤ -4.2
13,U6G C8G,-3.65
14,C8A A24G U61A C76G U78C G84U,≤ -4.2
15,U7A A26U C32G A49C G50A G83U,≤ -4.2
16,U9A A16U U56A G84A C131U,≤ -4.2
17,U6A U13A U61A C76A A91G,≤ -4.2
18,C8U C14G G50C A106U A110G,≤ -4.2
19,U6G G80C C149A,≤ -4.2
20,C8A A40U G42A G68A C85U U144G,≤ -4.2
21,C8A G42U G50A G74U C95U,≤ -4.2

row,Variant,polymerase ribozyme fitness (log ratio)
1,C8A C14G C27U G46A C76A U109G C131U G143A,≤ -4.2
2,U6C A24G U31A A52C C87U U90G G92U C93A,≤ -4.2
3,U7G A22U C43U C93A A142G,≤ -4.2
4,U6C A66C C72A U77C U82A U111C G126A,≤ -4.2
5,C8U A16U A21C G67U C87U,≤ -4.2
6,C8G A16C G25U A37C G59C A64U C87A G92C,≤ -4.2
7,C8U A39C G59C C96U C103A C114U C116U,≤ -4.2
8,C8U C57U,-3.18
9,C8U C57A,-2.69
10,C8G G84A,-3.43
11,U6G U139C,-3.69
12,U6G A19G C38G C96A A106U,-3.84
13,C8G A24U G25U G80A C96G C125A,≤ -4.2
14,U7A C10G C32A U33A G50C G83U A91G U102C,≤ -4.2
15,C8A A30U G71A U82G C95A C103G U134A G141U,≤ -4.2
16,C8U G50U G71C C85G,≤ -4.2
17,U6G G50C U56A G65A A73C C96U U139C,≤ -4.2
18,U7G A17C A24U A52G A64G C72G C85U G88U G92U C93G A119U,≤ -4.2
19,U6A U13A C35G A110G A142G,-3.55
20,C8U A30U C32U A64G C76A A97G A107U C108U A110G C116A,-4.12
21,U7A A21C U53G U56A G58C A60U C75A,≤ -4.2

row,Variant,polymerase ribozyme fitness (log ratio)
1,C8G A52G,-3.17
2,C8G A24G C76A U139A A142C U144C U148G,≤ -4.2
3,U6G A28U A41G G88C G143A U144C U146G,≤ -4.2
4,C8A A40U C57U U78A A119C,≤ -4.2
5,C8A A24G A41C C93U A97U A120G,≤ -4.2
6,U7G C96U C129U A137G,≤ -4.2
7,C8G C43G A52G C93G C114G A121G,≤ -4.2
8,U7A U45G A49C G50C C87U C96A,≤ -4.2
9,U7G A24C C43A A47G C75U C85A G86A C103G,≤ -4.2
10,U7G A37G C38U G59U A60U G94U C108U,≤ -4.2
11,U6C U56G A64C G143U,≤ -4.2
12,C8G A12G C35U C75A G86U U109G U127G A137G,≤ -4.2
13,U7G U15G U56G C93A A115C U130G,≤ -4.2
14,U6G A21C G152A,-2.84
15,U7G A23G C32A A115G,≤ -4.2
16,U6G G80A U82G G141U,0.34
17,C8A G50U G74C G80A C85U U139C G141C,≤ -4.2
18,C8U A20C A49G U53A C95A A106G C118G,≤ -4.2
19,C8A A17U U55A G81C C87A A91U U144C U145C,≤ -4.2
20,C8A U31C A41U G58A G71A C76U C125U A142G,≤ -4.2
21,C8A A22C C35U G48C A73U,≤ -4.2

row,Variant,polymerase ribozyme fitness (log ratio)
1,C8U A60G A121C,-3.73
2,U6C U31C A52U G58A C95G U145A,-2.9
3,C8A C14G,-3.51
4,U7A C18A U33G A66U G84A G100A G124C,≤ -4.2
5,C8U U15C A17U A40G G42C U61G C75U C93U C129U G133U,≤ -4.2
6,C8A U44C C79G G86C G140U,≤ -4.2
7,U7A U45C G50U G83A A89U G94C A115U G141A,≤ -4.2
8,C8A C32G A47U C54G G92U,≤ -4.2
9,U7C U53G G86C A106G A150C,≤ -4.2
10,U6G C35U C76A C87U,-2.63
11,U7G A26U U56G G59C G83A C96U A138C,≤ -4.2
12,U6G U13G A41U A52C G133U A138G U148G,≤ -4.2
13,C8U C87A,≤ -4.2
14,C8A C10G G50U C51G U56G C57G G62A G86A,≤ -4.2
15,C8U C99A,-3.69
16,C8G C32U G80U,-4.14
17,U6G C35G C95A C99U U102A U111C,≤ -4.2
18,C8U G74U C79U C93A G143U,≤ -4.2
19,C8U C10G C35G C57A A66U G86U U134C U139C U148A,≤ -4.2
20,U7A A29G G67A C69U G80C C103G U104C C105U G136A G140U,≤ -4.2
21,C8U A52U U56A U61A C75U C93U C99G C132G,≤ -4.2
